Laboratory results published in publication PMC10598227, “Structural insights for selective disruption of Beclin 1 binding to Bcl-2” (Communications Biology, 2023).

Columns and labels:
Bcl-2(1-218) = biological target: T1, Bcl-2(1-218) (human, UniProt P10415 1-218); test: NMR titration; 1H-15N TROSY-HSQC spectra of 10-45 uM uniformly 15N-labelled Bcl-2 fragment without and with Beclin 1 BH3 peptide added from a d6-DMSO stock; 25 °C, 20 mM sodium phosphate pH 7.3, 1 mM TCEP, 7% D2O; settings: both partners purified
T1 construct: Uniformly 15N-labelled for NMR. pSKB2 vector with HRV 3C cleavage site; also called cytoplasmic region of Bcl-2 (residues 1-218); Becl-2(1-218); source: E. coli BL21 (DE3), purified (Ni-NTA, His6-tag cleaved with 3C protease, Superdex 75); not shown: His6, N-terminal, cleaved
T1 sequence (P10415 1-218): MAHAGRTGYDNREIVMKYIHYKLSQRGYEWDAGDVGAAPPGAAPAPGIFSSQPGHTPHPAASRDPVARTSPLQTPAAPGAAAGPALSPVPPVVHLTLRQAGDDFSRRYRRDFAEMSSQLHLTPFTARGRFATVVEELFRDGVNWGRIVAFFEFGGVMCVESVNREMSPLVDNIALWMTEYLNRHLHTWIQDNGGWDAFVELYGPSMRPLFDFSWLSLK

Bcl-2(1-206) = biological target: T2, Bcl-2(1-206) (human, UniProt P10415 1-206); test: as above; settings: both partners purified
T2 construct: vector analogous to that of human Bcl-2(1-218), isoform alpha; Uniformly 15N-labelled for NMR; Vector was a gift from Beth Levine, called analogous to the pSKB2 vector of Bcl-2(1-218); also called Bcl-2 fragment lacking the juxtamembrane region; Bcl-2(1-2-6); source: E. coli BL21 (DE3), purified (Ni-NTA, His6-tag cleaved with 3C protease, Superdex 75); not shown: His6, N-terminal, cleaved
T2 sequence (P10415 1-206): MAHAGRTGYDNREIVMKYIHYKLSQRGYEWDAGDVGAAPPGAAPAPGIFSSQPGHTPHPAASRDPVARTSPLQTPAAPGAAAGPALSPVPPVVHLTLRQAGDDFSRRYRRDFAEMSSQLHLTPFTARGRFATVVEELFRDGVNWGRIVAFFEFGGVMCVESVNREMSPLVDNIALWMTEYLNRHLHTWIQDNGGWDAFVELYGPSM

binding result (Bcl-2(1-218)): binds | binding result (Bcl-2(1-206)): binds
B1: Beclin 1 BH3 peptide (peptide)
peptide: DGGTMENLSRRLKVTGDLFDIMSGQT
notes: Beclin 1, human, residues 105-130 (BH3 domain); L-amino acid peptide, dissolved in d6-dimethylsulfoxide; also called Beclin 1 BH3 domain; source: synthetic peptide (Protein Chemistry Technology Core, UT Southwestern), HPLC purified
